{
  "source": "paper PMC7041945",
  "about": "“Misfolded proteins bind and activate death receptor 5 to trigger apoptosis during unresolved endoplasmic reticulum stress” (eLife, 2020)",
  "type_in_all_cases": "cell-based, Homo sapiens",
  "key": {"[1]": {"tested_on": "caspase 8 in HCT116 lysates", "assay": "Caspase 8 activity (caspase glo 8) of cell lysates / IP inputs", "conditions": "for average fold change rel to empty: mean of 4 dilutions", "experimental": "Cells harvested from a 6-well plate were resuspended in 100 μl of lysis buffer (30 mM HEPES pH 7.2, 150 mM NaCl, 1% Triton X-100) and lysed via needle shearing (25G, 10 passes) followed by a 30 min incubation on ice. Supernatant was collected after centrifuging at 1000xg for 5 min. For the caspase activity assay, 10 μl of supernatant diluted with lysis buffer (1:25, 1:50, 1:100 to stay within linear range of luminescence measurements) was incubated with 10 μl of the luminogenic caspase glo 8 substrate (Promega #PRG8200) in a 384-white walled plate (Corning 3574) for 45 min at RT before measuring luminescence on a Spectramax-M5 plate reader."}, "[2]": {"tested_on": "caspase 8 in HCT116 fractions", "assay": "Caspase 8 activity of subcellular (iodixanol gradient) fractions", "conditions": "cells expressing MPZ-GFP; first and second ERGIC-associated fractions", "experimental": "This subcellular fractionation protocol was adapted from [Xu et al. (2015)].\nCells transfected with MPZ-GFP were harvested from a 15 cm dish as described in the Size Exclusion Chromatography section above. The cell pellet was resuspended in 400 μl of homogenization buffer (10 mM triethanolamine-acetic acid, pH 7.4, 0.25 M sucrose, 1 mM sodium EDTA, protease inhibitor cocktail (Roche)) and lysed via mechanical shearing through a 25-gauge needle on a 1 ml syringe with 13 passes. (Note on protease inhibitor: 4x protease inhibitor was used to lyse samples used for Western blotting to minimize degradation of proteins, while 1x protease inhibitor was used in sample lysis for caspase glo 8 assay so that excess inhibitor would not interfere with cleavage of luminescent substrate.) Homogenized sample was then centrifuged at 2000xg for 15 min at 4°C to remove unlysed cells and the nuclear fraction. […]\nFractions from samples lysed with 4x protease inhibitor were subjected to TCA precipitation to concentrate protein content for immunoblotting. Fractions from samples lysed with 1x protease inhibitor were used for the caspase glo 8 assay (10 μl of each fraction + 10 μl of the caspase glo 8 reagent (Promega #PRG8200) incubated for 45 min at RT prior to measuring luminescence)."}, "DR5": {"tested_on": "DR5", "assay": "GFP immunoprecipitation: DR5 (FADD, caspase 8) recovered with GFP-tagged protein, Western blot", "conditions": "for fraction of DR5 IP'ed: GFP IP", "experimental": "15 cm dishes were seeded with 4 million HCT116 cells and allowed to recover for 18 hr prior to transfection. Samples were then transfected for 24 hr with the GFP-tagged ER trafficked protein, cytosolic GFP, or empty vector. To harvest apoptotic and living cells for each sample, all media and washes were collected. Cells were scraped in 2 ml of cold PBS and combined with the media and washes. Samples were centrifuged to pellet cells, washed with 1 ml cold PBS, and flash frozen in liquid N2 prior to lysis.\nThe cell pellets were resuspended in 750 μl of 30 mM HEPES pH 7.2, 150 mM NaCl, 1% Triton X-100 with 1x Roche protease inhibitor cocktail (if used subsequently for caspase glo 8 assay) or with 5x Roche protease inhibitor cocktail (if used for immunoblotting). The cells were lysed by mechanical shearing through a 25G needle for 13–15 plunges followed by incubation on ice for 30 min. The lysate was centrifuged at 2000xg for 5 min to remove debris and then incubated with 30 μl of GFP-Trap magnetic agarose beads (Chromotek gtma-20) for 4 hr at 4°C. The beads were then washed with 750 μl of lysis buffer for 10 min at 4°C for three rounds.\nFor Western blots, samples were eluted by adding 35 μl of non-reducing SDS gel loading buffer (50 mM Tris-HCl (pH 6.8), 2% SDS, 0.1% bromophenol blue, 10% glycerol) and incubated for 10 min at 70°C. The beads were then magnetically removed from the eluted sample before adding DTT to a final concentration of 25 mM. The entire sample was loaded onto the gel and immunoblotted for DR5, caspase 8, and GFP, in that order."}},
  "data": [
    {"molecule": "MPZ-GFP: myelin protein zero with a C-terminal monomeric EGFP, expressed from plasmid (protein, left off: monomeric EGFP, C-terminal, kept, myelin protein zero with a C-terminal monomeric EGFP, expressed from plasmid) IVVYTDREVHGAVGSRVTLHCSFWSSEWVSDDISFTWRYQPEGGRDAISIFHYAKGQPYIDEVGTFKERIQWVGDPRWKDGSIVIHNLDYSDNGTFTCDVKNPPDIVGKTSQVTLYVFEKVPTRYGVVLGAVIGGVLGVVLLLLLLFYVVRYCWLRRQAALQRRLSAMEKGKLHKPGKDASKRGRQTPVLYAMLDHSRSTKAVSEKKAKGLGESRKDKK", "values": [
      {"measurement": "average fold change rel to empty", "setting": "[1]; 3 hr", "value": 0.9963, "unit": "fold"},
      {"measurement": "average fold change rel to empty", "setting": "[1]; 7 hr", "value": 0.909, "unit": "fold"},
      {"measurement": "average fold change rel to empty", "setting": "[1]; 10 hr", "value": 1.233, "unit": "fold"},
      {"measurement": "average fold change rel to empty", "setting": "[1]; 20 hr", "value": 1.145, "unit": "fold"},
      {"measurement": "average fold change rel to empty", "setting": "[1]; 24 hr", "value": 2.224, "unit": "fold"},
      {"measurement": "average fold change", "setting": "[1]; Rep 1, HCT116 lysate, amount not given, normalized RLUs relative to empty (GFP), average over four lysate dilutions", "value": 2.827, "unit": "fold"},
      {"measurement": "fold change relative to empty", "setting": "[1]; input, dilution 0.01, rep1", "value": 2.2},
      {"measurement": "fold change relative to empty", "setting": "[1]; input, dilution 0.01, rep2", "value": 1.925},
      {"measurement": "fold change relative to empty", "setting": "[1]; input, dilution 0.01, rep3", "value": 0.9528},
      {"measurement": "fold change relative to empty", "setting": "[1]; input, dilution 0.02, rep1", "value": 2.798},
      {"measurement": "fold change relative to empty", "setting": "[1]; input, dilution 0.02, rep2", "value": 1.811},
      {"measurement": "fold change relative to empty", "setting": "[1]; input, dilution 0.02, rep3", "value": 1.706},
      {"measurement": "avg fold change", "setting": "[1]; input, dilution 0.02, second listing, relative to avg. empty, average of rep1-rep3", "value": 1.9619},
      {"measurement": "fold change relative to empty", "setting": "[1]; input, dilution 0.02, second listing, rep2", "value": 1.832},
      {"measurement": "fold change relative to empty", "setting": "[1]; input, dilution 0.02, second listing, rep3", "value": 1.342},
      {"measurement": "fold change in caspase 8 activity relative to empty, Mean ± SEM", "setting": "[1]; inputs of GFP pulldown, n=6", "value": "1.899 ± 0.2476, n=6 fold"},
      {"measurement": "caspase 8 activity of ERGIC-associated fractions", "setting": "[2]", "value": "harbored the majority of the caspase 8 activity in the cell lysate"},
      {"measurement": "fraction of DR5 IP'ed", "setting": "DR5; run 2018-02-27", "value": 0.1051},
      {"measurement": "fraction of DR5 IP'ed", "setting": "DR5; sheet 2019-12-12, replicate 2", "value": 0.0582},
      {"measurement": "fraction of DR5 IP'ed", "setting": "DR5; sheet 2019-12-12, replicate 3", "value": 0.1364},
      {"measurement": "DR5 complex proteins in GFP immunoprecipitates", "setting": "DR5; HCT116, 24 hr post-transfection", "value": "detected DR5, FADD, and caspase 8"},
      {"measurement": "fraction IP'ed", "setting": "DR5; Rep 1 (first series)", "value": 0.1051},
      {"measurement": "fraction IP'ed", "setting": "DR5; Rep 2 (first series)", "value": 0.0582},
      {"measurement": "fraction IP'ed", "setting": "DR5; Rep 3 (first series)", "value": 0.1364},
      {"measurement": "% IP'ed", "setting": "DR5; average of all replicates", "value": 9.991, "unit": "%"},
      {"measurement": "fraction IP'ed, average", "setting": "DR5; average of all replicates", "value": 0.09991},
      {"measurement": "beads (*diluton factor)", "setting": "DR5; Rep 1 (first series)", "value": 1453332},
      {"measurement": "beads (*diluton factor)", "setting": "DR5; Rep 2 (first series)", "value": 11158310},
      {"measurement": "beads (*diluton factor)", "setting": "DR5; Rep 3 (first series)", "value": 12501020},
      {"measurement": "input (*dilution factor)", "setting": "DR5; Rep 1 (first series)", "value": 13824070},
      {"measurement": "input (*dilution factor)", "setting": "DR5; Rep 2 (first series)", "value": 191711370},
      {"measurement": "input (*dilution factor)", "setting": "DR5; Rep 3 (first series)", "value": 91647520},
      {"measurement": "Mean ± SEM (fraction IP'ed)", "setting": "DR5; unpaired t test sheet, GFP n=5, MPZ n=3, INS n=2, RHO n=2", "value": "0.09991 ± 0.02272, n=3"},
      {"measurement": "95% confidence interval (difference between means)", "setting": "DR5; vs. GFP, fraction IP'ed", "value": "0.04255 to 0.1369"},
      {"measurement": "Difference between means", "setting": "DR5; vs. GFP, fraction IP'ed, ± SEM", "value": "0.0897 ± 0.01927"}
    ]}
  ]
}
